B1: Saxatilin (protein)
chain: EAGEECDCGAPANPCCDAATCKLRPGAQCAEGLCCDQCRFMKEGTICRMARGDDMDDYCNGISAGCPRNPFHA
B2: Recombinant Saxatilin: Saxatilin expressed in Pichia pastoris transformed with pPSAX, obtained in Example 6 (protein)
chain: B1 chain

Experiments:
[1] = test system: human platelet rich plasma (PRP); format: cell-based; conditions: method of Example 1 (collagen-induced, human PRP); read-out: IC50 determined by platelet aggregation inhibition assay
Procedure: To isolate Saxatilin from the venom of Agkistrodon saxatilis emelianov, 302.4 mg of crude venom from the snake was applied to a SEPHADEX™ G-75 gel filtration column (1.8×100 cm) equilibrated with PBS buffer, and fractionated at a flow rate of 20 ml/h. The activity of Saxatilin was determined by the platelet aggregation inhibition assay: The concentrated human platelet rich plasma (PRP) obtained from 400 ml of human blood was diluted to the concentration of 300,000 platelets/μl. The diluted PRP (450 μl) was mixed with 50 μl of PBS and then incubated in the aggregometer CHROMO-LOGT™, USA) at 37° C. for 3 minutes. After collagen ([…]) was added into the PRP solution to induce the platelet aggregation, the difference of light transmittance was measured.
Recombinant Saxatilin obtained in Example 6 was assayed by the platelet aggregation inhibition method described in Example 1, and compared with those of wild-type Saxatilin obtained in Example 1 and GRGDSP (SEQ ID NO:7) (see: Table 1), respectively.

[2] = test system: αVβ3 integrin on HUVEC surface; test: HUVEC adhesion to Saxatilin-coated plate; format: cell-based, human; conditions: pre-incubation of bFGF-stimulated HUVEC 20 min; FIG. 4b
Procedure: (§1) 96-well plate was coated with recombinant Saxatilin obtained in Example 6 (1 μg/well) as well as Vitronectin (0.5 μg/well) which were dissolved in phosphate buffered saline (PBS) for 16 hr at 4° C. After washing the plate, 10 mg/ml of heat-treated bovine serum albumin (BSA) was added for blocking of uncharged protein binding site. The plate was incubated for 1 hr and washed with PBS. HUVEC was trypsinized and washed with PBS three times, and then, resuspended in serum-free DMEM. 5×10^4 cells were mixed with anti-αVβ3 monoclonal antibody, a synthesized RGD peptide, GRGDSP (SEQ ID NO:7), a synthesized RGE peptide, GRGETP (SEQ ID NO:8) and Saxatilin, and pre-incubated for 20 min at 37° C. Then, the mixture was added to the wells of both Saxatilin and Vitronectin-coated 96-well plate. After 1 hr of incubation at 37° C. under an environment of 5% CO2, the plate was washed with PBS to remove unbound cells, and bound cells were fixed and stained with Coomassie blue. Optical absorbences of the wells were measured at 540 nm to count relative cell numbers (see: FIGS. 4a and 4b).

[3] = test system: αVβ3 integrin on HUVEC surface; test: HUVEC adhesion to Vitronectin-coated plate; format: cell-based, human; conditions: pre-incubation of bFGF-stimulated HUVEC 20 min; FIG. 4a
Procedure: To confirm that inhibition of HUVEC proliferation by Saxatilin is due to the direct interaction of Saxatilin with Vitronectin receptor, αVβ3 integrin, localized on the HUVEC surface, it was investigated whether Saxatilin blocks HUVEC from binding to Vitronectin-coated 96-well plate.
as §1

HUVEC = test: bFGF-stimulated HUVEC proliferation inhibition assay; format: cell-based, human; conditions: 0, 20, 30 μg/ml; 1 ng/ml bFGF; 72 hr; FIG. 3
Procedure: To investigate whether recombinant Saxatilin containing RGD sequence inhibits the endothelial cell proliferation, proliferation inhibition assay was performed using HUVEC.
HUVEC was cultured on 24-well microplate coated with gelatin at 37° C. for 24 hr under an environment of 5% CO2. […] Then, cells were further incubated for 20 min and treated with 1 ng/ml of bFGF solution. After incubation of 72 hr, cells were trypsinized and the cell numbers were counted to determine cell viability (see: FIG. 3).

[4] = test system: human platelet rich plasma; test: Platelet aggregation inhibition assay, ADP-induced (Example 5); format: cell-based
[5] = test system: Lewis lung carcinoma cells; test: Metastatic Lewis lung carcinoma growth in mice; format: in vivo, C57BL/6 mice
Procedure: 1×10^6 Lewis lung carcinoma cells (purchased from […], Rockville, Md., USA) were injected into the tails of 8-week-old male C57BL/6 mice (Charles river, Japan), intravenously. At 4 day after injection, recombinant Saxatilin obtained from Example 6 was periodically applied to mice by intravenous injection in an amount of 1.25 mg/kg/day (once per day). After 4-weeks of periodical treatment, tumor-bearing mice were sacrificed, and the number of tumor colony was counted by using stereomicroscope.
Furthermore, to observe the direct effect of Saxatilin on the metastatic lung carcinoma, histochemical study was carried out. Tumor-bearing lung tissue was fixed in paraffin in accordance with the conventionally known method followed by treatment of Bouin's solution for 4 hours. The tissue section of 4 μm thickness was infiltrated with trypsin at 37° C. for 10 min and washed with PBS. The tissue section was stained with hematoxylin and eosin, and then mounted (see: FIGS. 6a, 6b and 6c). FIG. 6a is a photograph showing lung tissue without Lewis lung carcinoma cell; FIG. 6b, lung tissue implanted with Lewis lung carcinoma cell and then treated with PBS; and, FIG. 6c, lung tissue implanted with Lewis lung carcinoma cell and then treated with Saxatilin. […] As illustrated as above, it was assumed that the suppression of metastatic tumor growth in Saxatilin-treated mice was due to blockade of Saxatilin against angiogenesis, which was essential for the secondary tumor growth.

male C57BL/6 mouse = test: Acute toxicity (LD50); format: in vivo; conditions: subcutaneous injection, 7 days
Procedure: To examine the acute toxicity of Saxatilin as anti-platelet aggregation agent and anti-tumor agent, Saxatilin was injected into male C57BL/6 mouse subcutaneously and the dead were counted to determine LD50 for 7 days.

ICR mice = test: Collagen/epinephrine-induced thrombosis in mice, viability; format: in vivo, mouse; conditions: 10 min before collagen + epinephrine
Procedure: When a mixture of collagen and epinephrine was injected into mice intravenously, thrombus was formed in pulmonary artery, which led to paralysis, dilation of pupil, laboring breath and convulsions, and finally 70% of the mice died not more than 5 min. Thus, it was investigated whether the intravenous injection of recombinant Saxatilin could reduce the thrombosis symptoms.
At 10 minutes after Saxatilin (0, 0.1, 0.25 and 0.5 mg/kg dissolved in 0.1 ml PBS, respectively) was intravenously injected into the tails of ICR mice, the mixture of collagen and epinephrine (120 μg collagen and 12 μg epinephrine in 0.1 ml PBS) was also injected into the tails of ICR mice, intravenously, and the viability was determined (see: Table 2).

BCE cell = test: bFGF-stimulated BCE cell proliferation; format: cell-based
[6] = test system: chick chorioallantoic membrane (CAM); test: Chick chorioallantoic membrane (CAM) assay, bFGF-stimulated angiogenesis; format: in vivo; conditions: 5 μg applied to CAM, observed at 72 hr; FIG. 5b
Procedure: Chick chorioallantoic membrane (CAM) assay, a simulated in vivo model, was carried out to examine the effect of Saxatilin on bFGF-stimulated angiogenesis. A part of the rind of fertilized 3-day-old egg was broken carefully, and sealed with transparent tape, and incubated for 10 days at 37° C. under an environment of 60% humidity. Then, bFGF was applied to the chick chorioallantoic membrane (CAM) of individual embryo (6 ng/embryo) to induce angiogenesis. After further incubation of 24 hr, PBS as a negative control and 5 μg recombinant Saxatilin obtained from Example 6 were applied to CAM, respectively. At 72 hr after treatment, the blood vessels of embryos were observed (see: FIGS. 5a and 5b).

[7] = 1.25 mg/kg/day i.v. from day 4, 4 weeks, C57BL/6 mice

| Molecule | IC50 [1] | HUVEC adhering to Saxatilin [2] | HUVEC adhering to Vitronectin [3] | effect on HUVEC growth (HUVEC) | IC50 ([4]; ADP-induced aggregation, human PRP, 25° C.) | inhibitory effect relative to GRGDSP peptide ([4]; ADP-induced platelet aggregation, more potent than GRGDSP) | Average colony number [5, 7] | Inhibition rate (%) [5, 7] | effect on metastatic tumor growth ([5]; 1.25 mg/kg/day i.v., 4 weeks) | metastatic tumor growth in lung tissue, histochemical study ([5]; hematoxylin and eosin stained lung sections, FIG. 6c) | toxicity on tested mice ([5]; tumor-bearing mice, 1.25 mg/kg/day i.v.) | LD50 (male C57BL/6 mouse) | Mortal group/Total group (ICR mice; 0.1 mg/kg i.v.) | Viability (ICR mice; 0.1 mg/kg i.v.) | Mortal group/Total group (ICR mice; 0.25 mg/kg i.v.) | Viability (ICR mice; 0.25 mg/kg i.v.) | Mortal group/Total group (ICR mice; 0.5 mg/kg i.v.) | Viability (ICR mice; 0.5 mg/kg i.v.) | bFGF-stimulated BCE cell proliferation (BCE cell) | effect on bFGF-stimulated angiogenesis (CAM) [6] |
| --- | --- | --- | --- | --- | --- | --- | --- | --- | --- | --- | --- | --- | --- | --- | --- | --- | --- | --- | --- | --- |
| N=C(N)NCCC[C@H](NC(=O)CN)C(=O)NCC(=O)N[C@@H](CC(=O)O)C(=O)N[C@@H](CO)C(=O)N1CCC[C@H]1C(=O)O [GRGDSP, reference compound] | 270000 nM | prevented HUVEC from adhering | prevented HUVEC from adhering | – | – | – | – | – | – | – | – | – | – | – | – | – | – | – | – | – |
| B1 | – | prevented HUVEC from adhering | prevented HUVEC from adhering | inhibited the HUVEC growth in a dose-dependent manner | 179 nM | 1000 times | 0.7 ± 0.6 | 95% | potently inhibited the metastatic tumor growth | not observed | no toxicity | about 1100 mg/kg | 16/20 | 20 | 11/20 | 55 | 3/20 | 85 | potently inhibited | had an inhibitory effect on angiogenesis |
| B2 | 139 nM | – | – | – | – | – | – | – | – | – | – | – | – | – | – | – | – | – | – | – |

— US7033788B2, “Protein derived from Agkistrodon saxatilis emelianov and process preparing the same” (priority 2002, dated 2006)
